Patent US20050164945A1, “Endotheliase-1 ligands” (priority 2003, published 2005)

Tests used:
[1] = target: T1, recombinant endotheliase 1 (human), Q9UL52; assay: cell-based or functional assay
T1 chain: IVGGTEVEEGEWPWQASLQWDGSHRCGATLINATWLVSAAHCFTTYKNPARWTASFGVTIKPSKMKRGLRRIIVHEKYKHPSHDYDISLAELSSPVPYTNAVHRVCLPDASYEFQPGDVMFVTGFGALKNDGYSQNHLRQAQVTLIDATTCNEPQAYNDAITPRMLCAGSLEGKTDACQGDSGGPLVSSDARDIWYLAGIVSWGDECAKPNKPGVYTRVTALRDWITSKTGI

[2] = target: T1, recombinant endotheliase 1 (human), …; assay: inhibition of ET1 activity

Binder: AGWPTCRGFWPDCGMMGT (modifications not checked) [DX-1135]
- ET1 IC50 [1]: 47 nM
- Ki [2]: 100 to 1000 nM

Binder: AGVQHCESRDLPCLIKGT (modifications not checked) [DX-1051]
- ET1 IC50 [1]: 770 nM
- Ki [2]: 100 to 1000 nM

Binder: AGNYMCKGYWPDCKMTGT (modifications not checked) [DX-1133]
- ET1 IC50 [1]: 350 nM
